The results in this text go back to PMC7680125.

The series concerns Isw1 alone (Saccharomyces cerevisiae). The experiment in a line: EMSA. As to conditions: 35 mM Na-HEPES pH 7.8, 5 mM MgCl2, 0.1 mM EGTA, 0.02 M EDTA (so in the source), 70 mM NaCl, 0.1 mg/ml BSA, 5-8% glycerol, 40 uM 2-mercaptoethanol, 30 C, 30 min …. A general note: A gel shift assay detects complexes by their altered migration in electrophoresis.

0N70 mononucleosome came in with a Kd of 0.0219 µM.

Broadly, the Kd is the equilibrium constant for the complex coming apart.
